Earlier results as cited in article PMC11168107.
pKd: −log10 of the molar value. Like-named read-outs stand apart in the source and are kept apart here.

Key:
Bin1 SH3 (Homo sapiens) [1] = biological target: Bin1 SH3 (Homo sapiens) (UniProt O00499)
Bin1 SH3 (Homo sapiens) [2] = biological target: Bin1 SH3 (Homo sapiens) (UniProt O00499); remark: listed apart in the source

Chain of UniProt O00499 (O00499 517-593): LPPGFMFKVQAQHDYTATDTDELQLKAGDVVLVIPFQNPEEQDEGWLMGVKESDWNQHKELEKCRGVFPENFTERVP

pKd (Bin1 SH3 (Homo sapiens) [1])	pKd (Bin1 SH3 (Homo sapiens) [2])	Substance
5.38		MYC 55-68 (from UniProt P01106)
	4.48	MYC 1-88 (from UniProt P01106)
